According to patent US20250296992A1 (Genmab, published 2025):

Columns and labels:
[1] = target: T1, human SLITRK6 extracellular domain linked to his tag (human, UniProt Q9H5Y7 27-608); assay: ELISA, coated antigen
T1 construct: extracellular domain; also called huSLITRK6; Hu SLITRK6; not shown: his tag

[2] = target: T2, cynomolgus monkey SLITRK6 extracellular domain linked to his tag (cynomolgus monkey, UniProt G7PVK4 27-608); assay: ELISA, coated antigen
T2 construct: extracellular domain; also called cynoSLITRK6; Cyno SLITRK6; not shown: his tag

[3] = target: T3, rat SLITRK6 (rat, UniProt D3ZP44 27-607); assay: ELISA, coated antigen
T3 construct: extracellular domain; not shown: his tag

[4] = target: T4, human SLITRK6 on cells (human, UniProt Q9H5Y7 27-841); assay: flow cytometry on RT4 cells
T4 construct: whole, on cells
Experimental: (§1) The binding activity of mAbs was evaluated by flow cytometer (Beckman, Cytoflex). Specifically, cells were incubated with 50 μL of mAbs or ADCs in series dilutions in PBS containing 1% BSA at 4° C. for 30 minutes. The cells were washed twice with PBS containing 1% BSA, stained with PE-conjugated anti human Fc in PBS containing 1% BSA and then incubated at 4° C. for 20 min. After that the cells were washed twice with PBS and analyzed by a flow cytometer.

[5] = target: T4, human SLITRK6 on cells; assay: flow cytometry on RT4 cells; remark: listed apart in the source
Experimental: (§2) The binding activity of mAbs and ADCs was evaluated by flow cytometer (Beckman, Cytoflex). Specifically, cells were incubated with 50 μL of mAbs or ADCs in series dilutions in PBS containing 1% BSA at 4° C. for 30 min. The cells were washed twice with PBS containing 1% BSA, stained with PE-conjugated anti human Fc in PBS containing 1% BSA and then incubated at 4° C. for 20 min. After that the cells were washed twice with PBS and analyzed by a flow cytometer.

[6] = target: T4, human SLITRK6 on cells; assay: flow cytometry on SW780 cells
Experimental: as §1

[7] = target: T4, human SLITRK6 on cells; assay: flow cytometry on SW780 cells; remark: listed apart in the source
Experimental: as §2

[8] = target: T4, human SLITRK6 on cells; assay: flow cytometry on CHP-212 cells
Experimental: as §1

[9] = target: T4, human SLITRK6 on cells; assay: flow cytometry on CHP-212 cells; remark: listed apart in the source
Experimental: as §2

[10] = target: T4, human SLITRK6 on cells; assay: flow cytometry on RT112/84 cells
Experimental: as §1

[11] = target: T4, human SLITRK6 on cells; assay: flow cytometry on 293F-SLITRK6-C9 cells
Experimental: as §2

[12] = target: T4, human SLITRK6 on cells; assay: flow cytometry on 293F-huSLITRK6-C9 cells
Experimental: The binding activity of mAbs was evaluated by flow cytometer (Beckman, Cytoflex). Specifically, cells were incubated with 50 μL of mAbs or ADCs in series dilutions in PBS containing 1% BSA at 4° C. for 30 min. The cells were washed twice with PBS containing 1% BSA, stained with PE-conjugated anti human Fc in PBS containing 1% BSA and then incubated at 4° C. for 20 min. After that the cells were washed twice with PBS and analyzed by a flow cytometer.

[13] = target: T4, human SLITRK6 on cells; assay: flow cytometry on RT4 cells, PE-conjugated anti-human Fc
Experimental: (§3) Specifically, cells were incubated with 50 μL of mAbs or ADCs in series dilutions in PBS containing 1% BSA at 4° C. for 30 min. The cells were washed twice with PBS containing 1% BSA, stained with PE-conjugated anti human Fc in PBS containing 1% BSA and then incubated at 4° C. for 20 min. After that the cells were washed twice with PBS and analyzed by a flow cytometer.

[14] = target: T4, human SLITRK6 on cells; assay: as above; remark: listed apart in the source
Experimental: as §2

[15] = target: T4, human SLITRK6 on cells; assay: flow cytometry on SW780 cells, PE-conjugated anti-human Fc
Experimental: as §3

[16] = target: T4, human SLITRK6 on cells; assay: as above; remark: listed apart in the source
Experimental: as §2

[17] = target: T1, human SLITRK6 extracellular domain …; assay: BLI; antigen ECD-his on anti-his tips, antibody as analyte; 1:1 fit;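 note: antibody at several concentrations, 180 s association then 300 s dissociation in Tris buffer at pH 6 or 7.5, rate constants from global fitting, KD computed as koff/kon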
Experimental: (§4) Binding kinetic of antibody-antigen was characterized by the bio-layer interferometry (BLI). 100 nM of SLITRK6′ extracellular domain linked to his tag was immobilized on anti-his biosensor tips (Fortebio). The sensors were rinsed with the buffer (50 mM Tris-AcOH, pH 6 or 7.5, 0.05% v/v surfactant P20) for 10 min to remove the unbound molecules, then dipped in the antibody solutions at different concentrations for 180 seconds and interspersed by a rinsing step in the buffer solution for 300 seconds. Binding affinity was calculated using ForteBio Data Acquisition 6.3 software (ForteBio) and was derived by fitting the kinetic data to a 1:1 Langmuir binding model utilizing global fitting algorithms. The dissociation or association equilibrium constant KD was calculated from the binding rate constants as KD=koff/kₒₙ(where koff and kₒₙ represent the dissociation kinetic constant and the association kinetic constant, respectively).

[18] = target: T2, cynomolgus monkey SLITRK6 extracellular …; assay: as above
Experimental: as §4

[19] = target: T4, human SLITRK6 on cells; assay: flow cytometry on CHP-212 cells, PE-conjugated anti-human Fc
Experimental: as §3

[20] = target: T5, mouse SLITRK6 (mouse, UniProt Q8C110 23-609); assay: BLI; antigen-his on anti-his tips, antibody or ADC as analyte; 1:1 fit
T5 construct: extracellular domain; also called Mu SLITRK6; not shown: his tag

[21] = target: T1, human SLITRK6 extracellular domain …; assay: as above
Experimental: (§5) Binding kinetic of antibody-antigen was characterized by the bio-layer interferometry (BLI). 100 nM of SLITRK6′ extracellular domain linked to his tag was immobilized on anti-his biosensor tips (Fortebio). The sensors were rinsed with the buffer (50 mM Tris-AcOH, pH 6 or 7.5, 0.05% v/v surfactant P20) for 10 min to remove the unbound molecules, then dipped in the antibody solutions at different concentrations for 180 seconds and interspersed by a rinsing step in the buffer solution for 300 seconds. Binding affinity was calculated using ForteBio Data Acquisition 6.3 software (ForteBio) and was derived by fitting the kinetic data to a 1:1 Langmuir binding model utilizing global fitting algorithms. The dissociation or association equilibrium constant KD was calculated from the binding rate constants as KD=koff/kₒₙ (where koff and kₒₙ represent the dissociation kinetic constant and the association kinetic constant, respectively).

[22] = target: T2, cynomolgus monkey SLITRK6 extracellular …; assay: as above
Experimental: as §5

[23] = target: T3, rat SLITRK6; assay: as above
Experimental: as §5

[24] = target: T4, human SLITRK6 on cells; assay: flow cytometry on 293F-huSLITRK6 cells, PE-conjugated anti-human Fc
Experimental: as §3

[25] = target: T1, human SLITRK6 extracellular domain …; assay: BLI binning on huSLITRK6-his; Ab1 = row antibody first, then Ab2 (competitor) = phA108
Experimental: (§6) Epitope binning was characterized by the bio-layer interferometry (BLI). 100 nM of human SLITRK6′ extracellular domain linked to his tag was immobilized on anti-his biosensor tips (Fortebio). The sensors were rinsed with the buffer (50 mM Tris-AcOH, pH 6 or 7.5, 0.05% v/v surfactant P20) for 30 seconds to remove the unbound molecules, then dipped in the 100 nM of antibody 1 solutions for 180 seconds and interspersed by a rinsing step in the buffer solution for 300 seconds. After that, the sensors were dipped in the 100 nM of antibody 2 solutions. The epitope cluster was calculated using ForteBio Data Acquisition 6.3 software.

[26] = target: T1, human SLITRK6 extracellular domain …; assay: BLI binning on huSLITRK6-his; Ab1 = row antibody first, then Ab2 (competitor) = phA290
Experimental: as §6

[27] = target: T1, human SLITRK6 extracellular domain …; assay: BLI binning on huSLITRK6-his; Ab1 = row antibody first, then Ab2 (competitor) = hu1H2-03
Experimental: as §6

[28] = target: T1, human SLITRK6 extracellular domain …; assay: BLI binning on huSLITRK6-his; Ab1 = row antibody first, then Ab2 (competitor) = hu1H2-13
Experimental: as §6

[29] = target: T1, human SLITRK6 extracellular domain …; assay: BLI binning on huSLITRK6-his; Ab1 = row antibody first, then Ab2 (competitor) = hu14G1-03
Experimental: as §6

[30] = target: T1, human SLITRK6 extracellular domain …; assay: BLI binning on huSLITRK6-his; Ab1 = row antibody first, then Ab2 (competitor) = Sirtratumab
Experimental: as §6

[31] = target: T4, human SLITRK6 on cells; assay: flow cytometry on KYSE-30 cells, PE-conjugated anti-human Fc
Experimental: as §3

[32] = target: T4, human SLITRK6 on cells; assay: flow cytometry on SCC-4 cells
Experimental: as §1

T5 sequence (Q8C110 23-609): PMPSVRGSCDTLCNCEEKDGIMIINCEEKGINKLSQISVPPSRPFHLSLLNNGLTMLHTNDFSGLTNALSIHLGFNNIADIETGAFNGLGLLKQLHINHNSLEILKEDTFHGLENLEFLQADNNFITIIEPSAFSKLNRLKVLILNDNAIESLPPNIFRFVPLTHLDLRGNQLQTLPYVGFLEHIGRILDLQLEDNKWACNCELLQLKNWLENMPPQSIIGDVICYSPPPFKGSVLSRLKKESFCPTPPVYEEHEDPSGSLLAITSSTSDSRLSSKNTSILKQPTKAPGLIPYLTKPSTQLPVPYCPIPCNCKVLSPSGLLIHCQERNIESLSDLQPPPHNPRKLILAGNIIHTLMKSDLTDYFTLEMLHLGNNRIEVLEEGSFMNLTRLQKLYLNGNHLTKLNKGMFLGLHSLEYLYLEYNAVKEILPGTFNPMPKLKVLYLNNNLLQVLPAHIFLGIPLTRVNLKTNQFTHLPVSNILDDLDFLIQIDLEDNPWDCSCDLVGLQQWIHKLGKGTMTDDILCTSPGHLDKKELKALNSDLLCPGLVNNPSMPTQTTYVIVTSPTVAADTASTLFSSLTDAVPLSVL

Binder | EC50 [1] | EC50 [2] | EC50 [3] | EC50 [4] | EC50 [5] | EC50 [6] | EC50 [7] | EC50 [8] | EC50 [9] | EC50 [10] | EC50 [11] | EC50 [12] | EC50 (read off the curve) [13] | EC50 (read off the curve) [14] | EC50 (read off the curve) [15] | EC50 (read off the curve) [16] | Kd [17] | koff [17] | kon [17] | Kd [18] | further results
Sirtratumab (antibody, V domains shown, Prior-art benchmark antibody; also called Sirtratuzumab) VH: QVQLVESGGGVVQPGRSLRLSCAASGFTFSSYGMHWVRQAPGKGLEWVAVIWYDGSNQYYADSVKGRFTISRDNSKNTLFLQMHSLRAEDTAVYYCARGLTSGRYGMDWGQGTTVTVSS VL: DIVMTQSPLSLPVTPGEPASISCRSSQSLLLSHGFNYLDWYLQKPGQSPQLLIYLGSSRASGVPDRFSGSGSGTDFTLKISRVEAEDVGLYYCMQPLQIPWTFGQGTKVEIK | 0.06 nM | 0.06 nM | 0.88 nM | 0.2 nM | 0.26 nM | 0.33 nM | 0.39 nM | 0.21 nM | 0.25 nM | 0.2 nM | 1.41 nM | 1.41 nM | ~0.2 nM | ~0.3 nM | ~0.2 nM | ~0.3 nM | 5 nM | 0.00416 s⁻¹ | 831000 M⁻¹ s⁻¹ | 6.01 nM | koff [18]: 0.0037 s⁻¹; kon [18]: 615000 M⁻¹ s⁻¹; EC50 (read off the curve) [19]: ~0.1 nM; Kd [20]: 3.5 nM; Kd [21]: 0.35 nM; Kd [22]: 1.2 nM; Kd [23]: 1.5 nM; EC50 (read off the curve) [24]: ~1 nM; epitope binning signal [25]: 0.252; epitope binning signal [26]: 0.256; epitope binning signal [27]: 0.281; epitope binning signal [28]: 0.282; epitope binning signal [29]: 0.244; epitope binning signal [30]: 0.0645
AGS15E (antibody, V domains shown, drug conjugate; drug-linker and positions not given, also called ADC of Sirtratumab) VH: QVQLVESGGGVVQPGRSLRLSCAASGFTFSSYGMHWVRQAPGKGLEWVAVIWYDGSNQYYADSVKGRFTISRDNSKNTLFLQMHSLRAEDTAVYYCARGLTSGRYGMDWGQGTTVTVSS VL: DIVMTQSPLSLPVTPGEPASISCRSSQSLLLSHGFNYLDWYLQKPGQSPQLLIYLGSSRASGVPDRFSGSGSGTDFTLKISRVEAEDVGLYYCMQPLQIPWTFGQGTKVEIK |  |  |  |  |  |  |  |  |  |  |  |  | ~0.3 nM | ~0.3 nM | ~0.3 nM | ~0.2 nM |  |  |  |  | EC50 (read off the curve) [19]: ~0.2 nM; EC50 (read off the curve) [31]: ~0.5 nM; Kd [20]: 1.9 nM; Kd [21]: 0.3 nM; Kd [22]: 0.87 nM; Kd [23]: 1.2 nM; EC50 (read off the curve) [24]: ~1 nM
phA290 (antibody, V domains shown, From phage display, then full-length construction; Only the variable regions are tied to the name) VH: QVQLVQSGAEVKKPGASVKVSCKASGYTFTSYYMHWVRQAPGQGLEWMGIINPSGGSTSYAQKFQGRVTMTRDTSTSTVYMELSSLRSEDTAVYYCARGFTRYFDYWGQGTLVTVSA VL: EIVMTQSPGTLSLSPGERATLSCRASQSVSKYLAWYQQRPGQAPRLLIYDASNRATGIPARFSGSGSGTDFTLTVSSLEPEDFAVYYCQQRYNWPLTFGGGTTVEIK | 0.09 nM | 0.06 nM | 0.18 nM | 0.14 nM | 0.14 nM | 0.27 nM | 0.27 nM | 0.14 nM | 0.16 nM | 0.08 nM | 1.16 nM | 1.16 nM |  |  |  |  | 1.06 nM |  |  | 3.14 nM | EC50 [32]: 0.15 nM
phA108 (antibody, V domains shown, From phage display, then full-length construction; Only the variable regions are tied to the name) VH: QVQLVQSGAEVKKPGASVKVSCTASGYIFNDYYLHWVRQAPGQGLEWVGIINPSGGSPVYAQKFQGRVTMTRDTSTNTVYMELSSLRSEDTAVYYCARGMVRGVRLFDYWGQGTLVTVSA VL: EIVLTQSPATLSLSPGERATLSCRASQSVSSYLAWYQQKPGQTPRLLIYDASNRATGVPARFSGSGSGTDFTLTISSLETEDFAVYYCQQRTNWPLTFGGGTKVEIK | 0.05 nM | 0.06 nM | 0.29 nM | 0.1 nM | 0.12 nM | 0.27 nM | 0.27 nM | 0.14 nM | 0.14 nM | 0.1 nM | 0.87 nM | 0.87 nM |  |  |  |  | 1.05 nM | 0.000969 s⁻¹ | 924000 M⁻¹ s⁻¹ | 4.69 nM | EC50 [32]: 0.18 nM; koff [18]: 0.00379 s⁻¹; kon [18]: 809000 M⁻¹ s⁻¹; epitope binning signal [25]: 0.0346; epitope binning signal [26]: 0.0375; epitope binning signal [27]: 0.292; epitope binning signal [28]: 0.285; epitope binning signal [29]: 0.274; epitope binning signal [30]: 0.276
